Source: publication PMC5753752

How the values were obtained:
[1] = biological target: wild-type GLP-1R (UniProt P43220)
[2] = biological target: GLP-1R-T378SphK (UniProt P43220)
[3] = biological target: Cy3-labeled GLP-1R-T378SphK (UniProt P43220)

- GLP-1-induced cAMP accumulation in transfected HEK293T cells, pEC50 [1]: 10.7
- GLP-1-induced cAMP accumulation in transfected HEK293T cells, pEC50 [2]: 10.3
- GLP-1-induced cAMP accumulation in transfected HEK293T cells, pEC50 [3]: 10.4
Substance: GLP-1 peptide
